Measured values taken from FireProtDB (doi:10.1007/s11095-019-2705-5).

Conditions: Homo sapiens, Thermal, fluorescence, whole UniProt chain shown

B1: Bone morphogenetic protein 2 wild type, P12643 (protein)
chain: MVAGTRCLLALLLPQVLLGGAAGLVPELGRRKFAAASSGRPSSQPSDEVLSEFELRLLSMFGLKQRPTPSRDAVVPPYMLDLYRRHSGQPGSPAPDHRLERAASRANTVRSFHHEESLEELPETSGKTTRRFFFNLSSIPTEEFITSAELQVFREQMQDALGNNSSFHHRINIYEIIKPATANSKFPVTRLLDTRLVNQNASRWESFDVTPAVMRWTAQGHANHGFVVEVAHLEEKQGVSKRHVRISRSLHQDEHSWSQIRPLLVTFGHDGKGHPLHKREKRQAKHKQRKRLKSSCKRHPLYVDFSDVGWNDWIVAPPGYHAFYCHGECPFPLADHLNSTNHAIVQTLVNSVNSKIPKACCVPTELSAISMLYLDENEKVVLKNYQDMVVEGCGCR
Tm (pH 2, Citrate): 33 °C
Tm (pH 3, Citrate): 41 °C
Tm (pH 4.5, Acetate): 53 °C
Tm (pH 4.5, Malonate): 63 °C
Tm (pH 5, Acetate): 55 °C
Tm (pH 6, MES): 62 °C
Tm (pH 7, MOPS): 63 °C
Tm (pH 8.5, Tris): 61 °C
Tm (pH 10, phosphate): 59 °C
Tm (pH 10.5, CAPS): 52 °C
Tm (pH 11, CAPS): 32 °C
